In patent US20230295310A1 (ABCELLERA BIOLOGICS, published 2023):
Substitutions are numbered along the chain they refer to. Blank lines part the entries; values can stand above or below the binder they belong to.

Target: EGFR on HeLa cells (UniProt P00533 25-1210, limits assumed)
Assay: cell-based or functional assay

B1: GOMP001_bsAb_020 (bispecific antibody, human IgG1, kappa, L234A L235A)
heavy 1: EVQLVDSGGGLVQPGGSLRLSCSGSGFTFSSYWMSWVRKAPGKGLEWVANIKQDGSQKYYVDEVKGRFTISRDNVKNSLYLQMNSLRVEDTAVYYCARDESSSWYWYFDLWGRGTLVTVSSASTKGPSVFPLAPSSKSTSGGTAALGCLVADYFPEPVTVSWNSGALTSGVHTFPAVLQSSGLYSLSSVVTVPSSSLGTQTYICNVNHKPSNTKVDEKVEPKSCDKTHTCPPCPAPEAAGGPSVFLFPPKPKDTLMISRTPEVTCVVVDVSHEDPEVKFNWYVDGVEVHNAKTKPREEQYNSTYRVVSVLTVLHQDWLNGKEYKCKVSNKALPAPIEKTISKAKGQPREPQVYTLPPSREEMTDNQVSLTCLVKGFYPSDIAVEWESNGQPENNYKTTPPVLMSDGSFFLASKLTVDKSRWQQGNVFSCSVMHEALHNHYTQKSLSLSPG
light 1: RIQMTQSPSTLSASVGDRVTLTCRASQNIVKWLAWYQDKPGKAPKLLIYKASSLESGVPSWFSGSGSGTEFTLTINSLQPDDFATYYCQQYYTYSRTFGQGTKVEIKRTVAAPSVFIFPPSDKQLKSGTARVVCLLNNFYPREAKVQWKVDNALQSGNSQESVTEQDSKDSTYSLSSTLTLSKADYEKHKVYACEVTHQGLSSPVTKSFNRGEC
heavy 2: QVQLVQSGAEVKKPGASVKVSCKASGYTFTSHWMHWVRYAPGQGLEWIGEFNPSNGRTNYNEKFKSKATMTVDTSTNTAYMELSSLRSEDTAVYYCASRDYDYDGRYFDYWGRGTLVTVSSASTKGPSVFPLAPSSKSTSGGTAALGCLVKDYFPEPVTVSWNSGALTSGVHTFPAVLQSSGLYSLSSVVTVPSSSLGTQTYICNVNHKPSNTKVDKKVEPKSCDKTHTCPPCPAPEAAGGPSVFLFPPKPKDTLMISRTPEVTCVVVDVSHEDPEVKFNWYVDGVEVHNAKTKPREEQYNSTYRVVSVLTVLHQDWLNGKEYKCKVSNKALPAPIEKTISKAKGQPRRPRVYTLPPSREEMTKNQVSLVCLVKGFYPSDIAVEWESNGQPENNYKTTPPVLDSDGSFFLYSVLTVDKSRWQQGNVFSCSVMHEALHNHYTQKSLSLSPG
light 2: DIQMTQSPSSLSASVGDRVTITCSASSSVTYMYWYQRKPGDAPKLLIYDTSNLASGVPSRFSGSGSGTDYTFTISSLQPEDIATYYCQQWSSHIFTFGQGTKVEIKRTVAAPSVFIFPPSDEQLKSGTASVVCLLNNFYPREAKVQWKVDNALQSGNSQESVTEQDSKDSTYSLSSTLTLSKADYEKHKVYACEVTHQGLSSPVTKSFNRGEC
Max killing %: 79.6% | X… HeLa EC50: 0.102 nM

B2: GOMP001_bsAb_021 (bispecific antibody, human IgG1, kappa, L234A L235A)
heavy 1: QVQLVQSGAEVKKPGASVKVSCKASGYTFTSHWMHWVRKAPGQGLEWIGEFNPSNGRTNYNEEFKSKATMTVDTSTNTAYMELSSLRSEDTAVYYCASRDYDYDGRYFDYWGQGTLVTVSSASTKGPSVFPLAPSSKSTSGGTAALGCLVADYFPEPVTVSWNSGALTSGVHTFPAVLQSSGLYSLSSVVTVPSSSLGTQTYICNVNHKPSNTKVDEKVEPKSCDKTHTCPPCPAPEAAGGPSVFLFPPKPKDTLMISRTPEVTCVVVDVSHEDPEVKFNWYVDGVEVHNAKTKPREEQYNSTYRVVSVLTVLHQDWLNGKEYKCKVSNKALPAPIEKTISKAKGQPREPQVYTLPPSREEMTDNQVSLTCLVKGFYPSDIAVEWESNGQPENNYKTTPPVLMSDGSFFLASKLTVDKSRWQQGNVFSCSVMHEALHNHYTQKSLSLSPG
light 1: B1 light 2 with D1R, R37D, D41K, E122K, S130R
heavy 2: QMLLVESGGGVVQPGRSLTLSCAASGFTFRSYGMHWVRYAPGRGLEWVAIIWYDGSTEYYADRVKGRFTISRANSKNMLYLQMNSLRAEDTAVYYCAAFDYTNSFDIWGRGTMVTVSSASTKGPSVFPLAPSSKSTSGGTAALGCLVKDYFPEPVTVSWNSGALTSGVHTFPAVLQSSGLYSLSSVVTVPSSSLGTQTYICNVNHKPSNTKVDKKVEPKSCDKTHTCPPCPAPEAAGGPSVFLFPPKPKDTLMISRTPEVTCVVVDVSHEDPEVKFNWYVDGVEVHNAKTKPREEQYNSTYRVVSVLTVLHQDWLNGKEYKCKVSNKALPAPIEKTISKAKGQPRRPRVYTLPPSREEMTKNQVSLVCLVKGFYPSDIAVEWESNGQPENNYKTTPPVLDSDGSFFLYSVLTVDKSRWQQGNVFSCSVMHEALHNHYTQKSLSLSPG
light 2: DIVVTQTPLSSPVTLGQPASISCRSSQRFVHSDGNTYLSWLQRRPGDPPRLLIYKISNRISGVPDRFSGSGAGTDFKLKISRVEAEDVGIYYCMQATQFPYTFGQGTKLEIKRTVAAPSVFIFPPSDEQLKSGTASVVCLLNNFYPREAKVQWKVDNALQSGNSQESVTEQDSKDSTYSLSSTLTLSKADYEKHKVYACEVTHQGLSSPVTKSFNRGEC
Max killing %: 25.4%

B5: GOMP001_bsAb_023 (bispecific antibody, human IgG1, kappa, L234A L235A)
heavy 1: B2 heavy 1
light 1: B1 light 2 with D1R, R37D, D41K, E122K, S130R
heavy 2: QGQLVESGGGVVQPGRSLRLSCEASGFTFRSYGMHWVRYPPGKGLEWVAIIWYDGGKKYYGDRVKGRFTISRDNPKNTLYLQMNSLRPEDTAVYYCMAYDYSNGFDIWGRGTMVTVSSASTKGPSVFPLAPSSKSTSGGTAALGCLVKDYFPEPVTVSWNSGALTSGVHTFPAVLQSSGLYSLSSVVTVPSSSLGTQTYICNVNHKPSNTKVDKKVEPKSCDKTHTCPPCPAPEAAGGPSVFLFPPKPKDTLMISRTPEVTCVVVDVSHEDPEVKFNWYVDGVEVHNAKTKPREEQYNSTYRVVSVLTVLHQDWLNGKEYKCKVSNKALPAPIEKTISKAKGQPRRPRVYTLPPSREEMTKNQVSLVCLVKGFYPSDIAVEWESNGQPENNYKTTPPVLDSDGSFFLYSVLTVDKSRWQQGNVFSCSVMHEALHNHYTQKSLSLSPG
light 2: B2 light 2 with V4M, R28S, N35S, I60F, S70R, K77T, A96N
Max killing %: 27.5%

The next lines start with results.

X… HeLa EC50: 0.895 nM
B3: GOMP001_bsAb_024 (bispecific antibody, human IgG1, kappa, L234A L235A)
heavy 1: QGQLVESGGGVVQPGRSLRLSCEASGFTFRSYGMHWVRKPPGKGLEWVAIIWYDGGKKYYGDEVKGRFTISRDNPKNTLYLQMNSLRPEDTAVYYCMAYDYSNGFDIWGQGTMVTVSSASTKGPSVFPLAPSSKSTSGGTAALGCLVADYFPEPVTVSWNSGALTSGVHTFPAVLQSSGLYSLSSVVTVPSSSLGTQTYICNVNHKPSNTKVDEKVEPKSCDKTHTCPPCPAPEAAGGPSVFLFPPKPKDTLMISRTPEVTCVVVDVSHEDPEVKFNWYVDGVEVHNAKTKPREEQYNSTYRVVSVLTVLHQDWLNGKEYKCKVSNKALPAPIEKTISKAKGQPREPQVYTLPPSREEMTDNQVSLTCLVKGFYPSDIAVEWESNGQPENNYKTTPPVLMSDGSFFLASKLTVDKSRWQQGNVFSCSVMHEALHNHYTQKSLSLSPG
light 1: RIVMTQTPLSSPVTLGQPASISCRSSQSFVHSDGSTYLSWLQDRPGQPPRLLIYKISNRFSGVPDRFSGRGAGTDFTLKISRVEAEDVGIYYCMQNTQFPYTFGQGTKLEIKRTVAAPSVFIFPPSDKQLKSGTARVVCLLNNFYPREAKVQWKVDNALQSGNSQESVTEQDSKDSTYSLSSTLTLSKADYEKHKVYACEVTHQGLSSPVTKSFNRGEC
heavy 2: B1 heavy 2
light 2: B1 light 2
Max killing %: 72.5%

X… HeLa EC50: 0.478 nM
B4: GOMP001_bsAb_022 (bispecific antibody, human IgG1, kappa, L234A L235A)
heavy 1: QMLLVESGGGVVQPGRSLTLSCAASGFTFRSYGMHWVRKAPGRGLEWVAIIWYDGSTEYYADEVKGRFTISRANSKNMLYLQMNSLRAEDTAVYYCAAFDYTNSFDIWGQGTMVTVSSASTKGPSVFPLAPSSKSTSGGTAALGCLVADYFPEPVTVSWNSGALTSGVHTFPAVLQSSGLYSLSSVVTVPSSSLGTQTYICNVNHKPSNTKVDEKVEPKSCDKTHTCPPCPAPEAAGGPSVFLFPPKPKDTLMISRTPEVTCVVVDVSHEDPEVKFNWYVDGVEVHNAKTKPREEQYNSTYRVVSVLTVLHQDWLNGKEYKCKVSNKALPAPIEKTISKAKGQPREPQVYTLPPSREEMTDNQVSLTCLVKGFYPSDIAVEWESNGQPENNYKTTPPVLMSDGSFFLASKLTVDKSRWQQGNVFSCSVMHEALHNHYTQKSLSLSPG
light 1: B2 light 2 with D1R, R43D, D47Q, E128K, S136R
heavy 2: B1 heavy 2
light 2: B1 light 2
Max killing %: 60.6%
